# Results taken from patent US7910100B2, “Antibodies directed to the mammalian EAG1 ion channel protein” (Max-Planck-Gesellschaft zur Forderung der Wissen, priority 2004, dated 2011).
# T1: endogenous Eag1 antigen in MCF7 breast cancer and IPC-298 melanoma cells (Homo sapiens, UniProt O95259)
# T1 construct: endogenous in cells; host or cells: MCF7 breast cancer cells, IPC-298 melanoma cells
# T1 sequence (O95259 1-989): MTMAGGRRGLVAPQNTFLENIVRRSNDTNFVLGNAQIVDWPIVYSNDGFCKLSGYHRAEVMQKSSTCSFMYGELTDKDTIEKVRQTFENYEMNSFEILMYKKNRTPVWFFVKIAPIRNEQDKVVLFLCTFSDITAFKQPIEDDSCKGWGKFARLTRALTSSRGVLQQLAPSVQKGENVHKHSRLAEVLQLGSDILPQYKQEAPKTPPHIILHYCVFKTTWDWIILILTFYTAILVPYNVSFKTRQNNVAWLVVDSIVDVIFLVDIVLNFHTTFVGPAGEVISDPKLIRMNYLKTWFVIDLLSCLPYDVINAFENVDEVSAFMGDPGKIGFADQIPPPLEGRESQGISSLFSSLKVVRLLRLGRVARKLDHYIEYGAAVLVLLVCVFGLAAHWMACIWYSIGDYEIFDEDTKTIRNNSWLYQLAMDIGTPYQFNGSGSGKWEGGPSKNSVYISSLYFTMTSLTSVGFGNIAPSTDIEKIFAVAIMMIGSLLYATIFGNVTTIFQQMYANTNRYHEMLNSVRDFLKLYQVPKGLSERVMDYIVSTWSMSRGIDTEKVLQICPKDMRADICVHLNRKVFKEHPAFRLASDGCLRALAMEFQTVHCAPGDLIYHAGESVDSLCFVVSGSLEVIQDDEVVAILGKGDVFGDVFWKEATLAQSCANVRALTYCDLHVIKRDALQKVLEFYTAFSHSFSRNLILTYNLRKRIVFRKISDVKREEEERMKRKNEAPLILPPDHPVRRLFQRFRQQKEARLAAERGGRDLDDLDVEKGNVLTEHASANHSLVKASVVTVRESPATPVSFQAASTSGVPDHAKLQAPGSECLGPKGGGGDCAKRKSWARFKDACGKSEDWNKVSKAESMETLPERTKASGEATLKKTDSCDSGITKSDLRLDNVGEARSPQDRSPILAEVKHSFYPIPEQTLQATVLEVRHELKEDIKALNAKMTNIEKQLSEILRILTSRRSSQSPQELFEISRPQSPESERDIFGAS
# Tests used:
# IPC-298 melanoma cells = assay: IPC-298 cell proliferation with secondary immunotoxin Mab-ZAP; format: cell-based, human; settings: in combination with secondary immunotoxin Mab-ZAP (100 ng/well), 72 hours
# Procedure: In order to evaluate the specific suitability and efficacy of anti-Eag1 monoclonal antibodies for conjugation as primary immunotoxin, in vitro cell proliferation assays were performed in the presence of anti-Eag1 antibody in conjunction with a secondary antibody conjugated to saporin, a ribosome-inactivating protein from the seeds of the plant Saponaria officinalis. The secondary immunotoxin binds to the anti-Eag1 antibody is internalized into the cell alongside the primary antibody. Once the immunotoxin is internalised, saporin breaks away from the targeting agent and inactivates the ribosomes, which causes protein inhibition and, ultimately, cell death.
# For the assay (FIG. 8a) 3000 IPC-298 cells were seeded in 60 μl/well FCS-containing medium on 96-well plates overnight. 100 ng/well (1 ng/μl) Mab-ZAP was mixed with 10 ng/μl of mouse monoclonal anti-Eag1 antibodies ImAb1 or ImAb4 in 40 μl FCS-containing medium for 1 h at 37° C. and then directly added to the cells in quadruplicates. […] The quantity of formazan product was measured by the amount of 490 nm absorbance using an ELISA plate reader.
# For the assay shown in FIG. 8b 3000 IPC-298 cells were seeded in 60 μl/well FCS-containing medium on 96-well plates overnight. […] Absorbance was measured using a spectrofluorometer at 590 nm every 30 min.
# [1] = target: T1, endogenous Eag1 antigen in MCF7 breast cancer and IPC-298 melanoma cells; assay: Immunofluorescence detection of Eag1 antigen in human tumor cells; format: cell-based; settings: 2 μg/ml antibody
# Procedure: For detection of Eag1 antigen in human tumor cells an Immunofluorescence staining protocol was established. Glass-Chamber slides (Falcon) were pre-coated with 300 μl medium containing 10% FCS at 37° C. for 30 min. 40 000 MCF7 breast cancer cells/well and 40 000 IPC-298 melanoma cells/well were seeded on pre-coated glass chamber slides and cultured at 37° C. in 5% CO2 for 24 h. After removing the chambers, slides were washed with PBS and cells were fixed with 4% Paraformaldehyd (in PBS adjusted to pH 7.5 with 1 M NaOH) at 25° C. for 10 min. Slides were air dried and re-hydrated with PBS for 3 min (3×). Cells were permeabilized with 0.5% Triton-X 100 in PBS for 10 min at 25° C., slides were washed for 3 min in PBS (3×) and each well was blocked with 100 μl blocking buffer (5% FCS, 2.5% BSA in PBS) at 25° C. for 1 hours. 2 μg/ml anti-EAG1 antibody ImAb 4 diluted in 40 μl blocking buffer/well was incubated for 1 h at 25° C., washed 3× with PBS and 50 μl Alexa 546 goat anti-mouse IgG (Molecular Probes; diluted 1:200 in dilution buffer) was incubated as detection antibody for 1 h at 25° C. Slides were washed with PBS (3×), 50 μl DAPI (Roche; diluted 1:1000 in PBS) was added to each well and incubated at 25° C. for 5 min. […]
# Staining of the anti-EAG1 antigen with ImAb 4 was analysed using a Fluorescence microscope at 573 nm.
molecule,measurement,setting,value
"ImAb4: mouse monoclonal anti-Eag1 antibody, IgG2b kappa; light chain SEQ ID NO: 2, heavy chain SEQ ID NO: 4 (antibody, listed as Mus musculus) heavy: MRVLILLWLFTAFPGILSDVQLQESGPGLVKPSQSLSLTCTVTGYSITSDYAWNWIRQFPGNKLEWMGYISYSGSTIYNPSLKSRISITRDTSKNQFFLQLNSVTTEDTATYYCARFGNYGNTLNYWGQGTSVTVSSAKTTPPSVYPLAPGCGDTTGSSVTLGCLVKGYFPESVTVTWNSGSLSSSVHTFPALLQSGLYTMSSSVTVPSSTWPSQTVTCSVAHPASSTTVDKKLEPSGPISTINPCPPCKECHKCPAPNLEGGPSVFIFPPNIKDVLMISLTPKVTCVVVDVSEDDPDVQISWFVNNVEVHTAQTQTHREDYNSTIRVVSTLPIQHQDWMSGKEFKCKVNNKDLPSPIERTISKIKGLVRAPQVYILPPPAEQLSRKDVSLTCLVVGFNPGDISVEWTSNGHTEENYKDTAPVLDSDGSYFIYSKLNMKTSKWEKTDSFSCNVRHEGLKNYYLKKTISRSPGK light: MKLPVRLLVLMFWIPASSSDVVMTQTPLSLPVSLGDQASISCRSSQSLVHSNGNTYLHWYLQKPGQSPKLLIYKVSNRFSGVPDRFSGSGSGTDFTLKISRVEAEDLGVYFCSQSTHVPPTFGGGTKLEIKRADAAPTVSIFPPSSEQLTSGGASVVCFLNNFYPKDINVKWKIDGSERQNGVLNSWTDQDSKDSTYSMSSTLTLTKDEYERHNSYTCEATHKTSTSPIVKSFNRNEC",inhibition of cell proliferation,IPC-298 melanoma cells,inhibition of IPC-298 melanoma cell proliferation
same,preferential binding by cell stage,[1],preferentially binds to dividing human cancer cells
same,binding to endogenous Eag1 antigen,[1]; fixed permeabilized cells,binds to endogenous Eag1 antigen in human cancer cells
